Assay results as given in paper PMC11479587.

Molecular target: Ssa1 (yeast (S. cerevisiae)) (UniProt P10591)
Sequence (P10591 whole entry): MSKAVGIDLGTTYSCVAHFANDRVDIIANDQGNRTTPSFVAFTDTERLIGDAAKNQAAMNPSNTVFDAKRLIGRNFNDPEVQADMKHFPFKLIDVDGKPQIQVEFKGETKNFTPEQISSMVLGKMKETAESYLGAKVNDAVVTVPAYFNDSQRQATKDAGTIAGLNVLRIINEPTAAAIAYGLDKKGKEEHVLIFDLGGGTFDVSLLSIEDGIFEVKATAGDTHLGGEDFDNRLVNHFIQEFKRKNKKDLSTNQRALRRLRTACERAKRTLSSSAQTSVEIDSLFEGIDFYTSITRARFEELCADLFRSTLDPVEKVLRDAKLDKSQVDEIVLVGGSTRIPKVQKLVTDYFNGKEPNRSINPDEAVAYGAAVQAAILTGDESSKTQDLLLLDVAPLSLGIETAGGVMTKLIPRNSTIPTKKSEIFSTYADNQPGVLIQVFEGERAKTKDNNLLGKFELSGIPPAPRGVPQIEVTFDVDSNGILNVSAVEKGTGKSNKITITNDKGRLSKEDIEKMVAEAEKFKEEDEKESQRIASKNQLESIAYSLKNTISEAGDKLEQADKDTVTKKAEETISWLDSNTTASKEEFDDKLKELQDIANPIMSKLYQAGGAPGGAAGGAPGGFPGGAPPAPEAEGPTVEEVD

renaturation of heat-aggregated GFP by Ssa1-Sis1 (1 µM each); concentration of Sse1-2 against Sse1 WT needed for the same activity; no inhibition up to 2 µM Sse1-2: 20 times
Substance: Sse1-2 variant (N572Y E575A) (from UniProt P32589 1-693) (natural protein)
